± gives the uncertainty stated by the source.

A short description of this series: amyloid nucleation score (Sup35N fusion, yeast selection) (log enrichment); library NNK1; higher = more nucleation; inactive = no reads after selection. Summed up: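 Random libraries were run with three technical output replicates. In each, psi-negative yeast expressing Sup35N fused to peptides of 20 random codons were induced 24 hours with 100 μM copper sulfate and grown 7 days at 30°C on medium lacking adenine and uracil, and input and output plasmid inserts were Illumina-sequenced. The nucleation score is the DiMSum log enrichment of output over input reads, centred on the mode score of non-aggregating sequences, and sequences under 100 input reads were excluded.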
Regarding KANFFTLRSMFWGPMN, the amyloid nucleation score was determined as 1.15 ± 0.64. For CSGCYPRLCESMLNGNSGYV, the amyloid nucleation score amounted to 1.31 ± 0.31.

MRCPRLASSDNDPCLLSRVS: the amyloid nucleation score was 0.357 ± 0.39.

The substance YCVVFYP registered an amyloid nucleation score of 1.66 ± 0.61. To YAAVLLNFT belongs 1.09 ± 0.28; to GQSKLVLHFAILTVVAWPFD, 0.385 ± 0.51. To AYFRGRVNFSLTFLAYT belongs -0.098 ± 0.56; to DMKNYVPVLLGNTMIMLWGL, 3.08 ± 0.085; to TGLWPMEYSCQCDVVYPVSY, -0.051 ± 0.76. The same measure for LKNSVSFMADGS: -0.327 ± 0.38. Turning to FWWIGYKTSSDGPRAVAIWC, the amyloid nucleation score is -0.137 ± 0.26. To TSSRCRYMFFLRHIFCKILK belongs “inactive”; to RIRIVNITGAESPMLCLNHE, 4.42 ± 0.12. As to TLVKLVVTIGLDIKDCGFVI, the amyloid nucleation score was 0.018 ± 0.18.

Regarding QRSRHSIFQGILRGSNSSWD, the amyloid nucleation score stood at 1.12 ± 0.69. The same measure for KGICRGRSLSVPESWAPFR: 0.133 ± 0.31; for DVIMEGFAMCVWSRVTALLE: 0.492 ± 0.85.

YRIKGVNWALPLCLALLSLR came in with an amyloid nucleation score of 0.068 ± 0.61.

The substance RALVDRLSTS yielded an amyloid nucleation score of 0.472 ± 0.82. In the case of DLNLFDRNHVELRMIVD, the amyloid nucleation score came out at 0.726 ± 0.65. The same measure for SGEVLRPFAVLC: -0.061 ± 0.3; for WVSANKSNCQMYSGTQTPCE: “inactive”. To TALSFRYVYLI belongs -0.612 ± 0.61. The same measure for FFWLVAK: -1.18 ± 1.2. As for CQSKYYIMRACCFMATLWYW, the amyloid nucleation score was -0.475 ± 0.47. To IGYEGYPYASYGCRLLEQDA belongs 0.168 ± 0.32. To FMRYNCNCKWDYFFRDCPAG belongs -0.357 ± 0.36; to GTATLSHTCKHTPLRDTRLV, -0.16 ± 0.32; to ISPRDHESLTNFHVRLCHMR, 0.368 ± 0.57. The same measure for LIRHVLNLVL: -0.139 ± 0.77; for RNLEVIYNSI: 0.229 ± 0.52; for PVGGHMVRLSSMSNSLAFKV: -0.563 ± 0.68. On to MSSFRGDLEFAYDYS, for which the amyloid nucleation score is -0.582 ± 1.2.

Consider ACRDVGHSVVLCKFKS, for which the amyloid nucleation score is -1.01 ± 1.4. To RIISGRLSSMFVNSIKVIMD belongs 0.889 ± 0.21; to TSLYQAYSIYSFRYYIAYMC, 0.232 ± 0.68. To LKTEPHIRLSPLETRPV belongs 0.552 ± 0.77.

The substance TRNSDNVWKFEGVFHNLETW came in with an amyloid nucleation score of 0.43 ± 0.48. To LREFLPLSNTVVGFTLDSYV belongs -0.526 ± 0.9; to RGFCTGNDVF, “inactive”. The same measure for EYRFVN: -0.227 ± 0.28; for AGLMTGATSLQLMKFCSLGG: -0.729 ± 0.71; for ATSDI: -0.076 ± 0.27. To INVFNCCWRLIFVLEV belongs 2.72 ± 0.14; to CYVHEFMDEPSRSNGDGVWC, -0.512 ± 1.2. The substance DALWKVFKDWLGGADQRGFP gave an amyloid nucleation score of 0.29 ± 0.78.

As for NTKTNGTSIGNSTVVLHLIA, the amyloid nucleation score stood at 6.409 ± 0.057.

As to ESFTPSRSTNVRI, the amyloid nucleation score is -1.24 ± 0.94.

YNLGQVFSWINDTTSMMCGK: the amyloid nucleation score amounted to 0.567 ± 0.32. The same measure for NCTWITGIFS: 0.044 ± 0.35; for ETNLFVLNVNNVLVVFWCPP: 6.938 ± 0.046. The substance ERGMEVLCNYENKGL returned an amyloid nucleation score of 0.918 ± 0.6.

GMSSRMPQLNSWEPRGGDSG: the amyloid nucleation score is -0.144 ± 0.83.

Take SSERYLASQPNSSPSPSIPT: the amyloid nucleation score was -0.421 ± 1.2. To MTRLINYCNGYNAKVVNWCF belongs 0.7 ± 0.97; to LLFCRFRSWDRDHRWCRCD, 1.95 ± 0.66. To PLWLCGGFQQWASGCRSVGL belongs -1.06 ± 0.49; to IKSVMDWSSCTEL, -0.144 ± 0.33; to SLMKELKF, -0.034 ± 0.73. Turning to GGECYLLEYLSMSGVYCFRI, the amyloid nucleation score was -1.25 ± 1.4. MKYPENSQWKDLYGFTVQVH came in with an amyloid nucleation score of 0.102 ± 0.46. The same measure for EEPLLSDMCITVGVRFLNKS: 3.36 ± 0.22; for NERSSEELAPLDTQWSMLRG: -0.124 ± 0.69; for VTMRLL: 0.968 ± 0.63. Consider VMKLDGDPKQVFPGYSLMEG, for which the amyloid nucleation score was -0.092 ± 0.36. Turning to DVVLDYSRQTYKDPASRMYA, the amyloid nucleation score is 1.1 ± 0.71. For the substance SAWWIGMMWCSSSSYLEIGG, the amyloid nucleation score was -0.586 ± 0.39. The same measure for LVHKLFDIRRCPTAFSNWTM: 1.29 ± 0.47; for RLSRLLTLISVACSTFLCVV: -1.84 ± 2.1. The same measure for GKLSSLLMFCRNSLFVGFLG: -0.086 ± 0.35. The same measure for QTLCCETRWSGENRSDAFRV: -0.596 ± 0.79; for IIIPFLSNSCEFMWL: 4.81 ± 0.076.

In turn, TLFLLVSNVIAEFLFWIVCP came in with an amyloid nucleation score of 0.212 ± 0.3. To KGRSNLIADFGDLFGGLYTY belongs -0.57 ± 0.37; to HGCSSVILVGMRAEEIFLYY, 2.71 ± 0.14; to LIYAREDGEALWEAIRPTEK, -0.047 ± 0.48.

For VRHMWWVFPIFEISVRKCPV, the amyloid nucleation score is -0.116 ± 1.

Substance RVLNMFYVMNCAIFWVVEAC yielded an amyloid nucleation score of 2.49 ± 0.18.

CKVLCYIAYTWNLDCTEFEG came in with an amyloid nucleation score of 6.449 ± 0.063. The same measure for TGDIISRSLSASIEQNFSSN: 0.443 ± 0.2; for IGYITHITYSVLVL: 0.371 ± 0.3; for WCFVTHLLLCFLLDDKNFTW: “inactive”.

The substance VTSWDMS had an amyloid nucleation score of 0.016 ± 0.26. The same measure for YCPNLYVVDGCFVLNSKLIL: 5.63 ± 0.072.

Consider SDYTLEGLIVFPCCVLLHVR, for which the amyloid nucleation score was determined as 0.381 ± 0.39. To TQCSFAANQF belongs 0.768 ± 0.39.

WENLKVSNYDLYSVLPLYGP had an amyloid nucleation score of 0.381 ± 0.45.

With FITYRGSKVRAFLSR, the amyloid nucleation score is -1.46 ± 0.9. To MRSWIVIMALKM belongs -1.34 ± 0.85; to FVSYTSP, -0.079 ± 0.33.

In turn, ICCGCRYFFSTTSV had an amyloid nucleation score of 6.7 ± 0.06. As for YLVILKITGGSDVPTDQMVW, the amyloid nucleation score was -0.88 ± 0.32. The same measure for FIESVL: 1.14 ± 0.67; for FRTSVDNLIGSENRISLRTS: 0.541 ± 0.68; for VWLMFLSWLV: -0.639 ± 0.78. For the substance FNRLSCFFSKSHPVQTGYNS, the amyloid nucleation score is -0.01 ± 0.51. The same measure for QRQNVYVGGYIANMVHGSGC: 1.27 ± 0.58; for SSVVL: 0.531 ± 0.44.

IVMVVMSSFGINEHPPDNQN returned an amyloid nucleation score of 1.35 ± 0.27. To MEAWRHSTSACSDGA belongs -0.245 ± 0.39; to SSNYMFVCRSKDLEVLLVGY, 0.398 ± 0.51; to YRVVLAECTSGYWEDIYSHI, 1.75 ± 0.16.

For CIKNSLRRYMCAYFSWGRRG, the amyloid nucleation score was -0.744 ± 1.2. The same measure for IKCHYFDVCLNVWSLCYLAC: 1.24 ± 0.46. Take CTVLRRFIRYHTITVYMWL: the amyloid nucleation score is 0.257 ± 0.75. To YSLVDTTLVILS belongs 0.226 ± 0.36; to RSISSVLVSIFTKMG, 0.232 ± 0.35; to LGFMTCSP, “inactive”. The same measure for RQGSDGVSSRKLWFFVRIAI: -0.383 ± 1.7. To GLHREATSYLNRLFRINSG belongs -0.48 ± 0.56.

Regarding APSNNFCNNGLMFRYVRPGD, the amyloid nucleation score was found to be 2.81 ± 0.21.

For the substance IPKCMYGRDRICLMLVAFEN, the amyloid nucleation score came out at 1.79 ± 0.28. For the substance SVSACPRVPMCIYGYLCWCH, the amyloid nucleation score was -0.311 ± 0.3. To LATNFCDTMRYVNGFRIAWC belongs 0.647 ± 0.66; to SWFYDGCSRPWRGIGDRRVC, -0.812 ± 0.91. To NDRFFGSKYCGVIVLSISDL belongs 5.95 ± 0.061; to HLVLFYVSLITFARYSFMGV, -0.058 ± 0.3. As to MGLMIMIFWWEDM, the amyloid nucleation score is -0.82 ± 0.91. The same measure for HLMMTLFFVPVLMCITFTDG: -0.032 ± 0.3. To FFNYRVMKRHYSVYLCVGSM belongs 1.18 ± 0.14; to VYYIVFPTTLSVDKFFPIWC, 2.26 ± 0.18; to WAVRIVHMRVFFGLPVDW, -0.697 ± 0.58. Take AVVAIYSQILRNGSVLSWFP: the amyloid nucleation score came to 0.242 ± 0.51. FVLDNRKFYVCFVGYRFGLF displayed an amyloid nucleation score of 4.83 ± 0.051. The same measure for AWVYSYSRSILMWGVTGLWV: 0.77 ± 0.61; for TLQLCLSSCWYKGRRVGLEC: 0.483 ± 0.3. The same measure for IAGIEGPI: -0.182 ± 1.3; for NGTRYMEAIMEKSLC: 1.47 ± 0.4.

FRVMDRVGSCLIVELTPG displayed an amyloid nucleation score of 0.084 ± 0.55. As for PWGTCQQYRYTFWPVSAC, the amyloid nucleation score is -0.412 ± 0.92. The same measure for LTISRSYRPKWFSVSTGLDS: 0.437 ± 1.4; for LFTNMYSRVLTFLM: -0.441 ± 1.7.

Take YNMREVLSCKF: the amyloid nucleation score is -0.114 ± 0.59. The same measure for LNHIRRTVR: 1.23 ± 0.53; for VKLCRACCYEYWRHHSPLGC: 0.594 ± 0.43; for YLISYRLTPSYASVNDCFPD: 0.203 ± 0.46.

In the case of TLGFKIVDGIRGNMLVGPGI, the amyloid nucleation score is -0.081 ± 0.73. To APRAAN belongs -0.126 ± 0.41; to GRYVSSWFWFRFMQVQANTN, 0.248 ± 0.31.

The values are drawn from the supplement of paper PMC12042874.
